Data on 15 molecules can be found in patent publication US20080274055A1 (US Dept. of Health and Human Services, published 2008).

First the molecules themselves.
T1: carcinoembryonic antigen (CEA) (human, UniProt P06731 35-685)
T1 sequence (looked up): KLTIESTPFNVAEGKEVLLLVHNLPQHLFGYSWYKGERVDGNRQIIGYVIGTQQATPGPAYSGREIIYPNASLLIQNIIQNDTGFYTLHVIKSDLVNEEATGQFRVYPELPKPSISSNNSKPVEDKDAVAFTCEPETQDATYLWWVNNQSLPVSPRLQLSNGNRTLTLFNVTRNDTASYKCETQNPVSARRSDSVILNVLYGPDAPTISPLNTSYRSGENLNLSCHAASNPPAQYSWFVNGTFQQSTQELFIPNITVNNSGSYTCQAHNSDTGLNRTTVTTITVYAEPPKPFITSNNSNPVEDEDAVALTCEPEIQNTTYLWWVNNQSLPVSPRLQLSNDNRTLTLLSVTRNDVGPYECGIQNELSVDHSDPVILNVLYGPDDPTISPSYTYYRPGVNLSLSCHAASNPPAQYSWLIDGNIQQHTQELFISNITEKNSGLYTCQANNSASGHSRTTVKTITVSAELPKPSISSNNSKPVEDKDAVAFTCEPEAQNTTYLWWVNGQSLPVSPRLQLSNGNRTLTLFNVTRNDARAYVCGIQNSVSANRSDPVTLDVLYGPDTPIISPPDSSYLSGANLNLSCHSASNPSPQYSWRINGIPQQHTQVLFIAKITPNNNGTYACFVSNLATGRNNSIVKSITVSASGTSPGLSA

B1: FRV5 (antibody, name in Kabat numbering, V domains shown)
VH: EVQLVQSGAEVVKPGASVKVSCKASGFNIKDYYMHWVRQRPEQGLEWMGWIDPENGDTEYAQKFQGRATMTTDTSTSTVYMELSSLRSEDTAVYYCNTRGLSTMITTRWFFDVWGAGTLVTVSS
VL: DIVMTQSPASLAVSLGERATINCKSSQSVSASGYSYMHWYQQKPGQPPKLLIYLASNLQSGVPARFSGSGSGTDFTLTISSLQAEDVATYYCQHSRELPTFGGGTKVEIK
notes: Kabat positions; also called HuCOL-1AbrCDR framework variant 5
B2: murine COL-1 monoclonal antibody (antibody, V domains shown)
VH: EVQLQQSGAELVRSGASVKMSCTASGFNIKDYYMHWVKQRPEQGLEWIGWIDPENGDTEYAPKFQGKATMTTDTSSNTAYLQLSSLTSEDTAVYYCNTRGLSTMITTRWFFDVWGAGTTVAVSS
VL: DIVLTQSPASLTVSLGLRATISCRASKSVSASGYSYMHWYQQRPGQPPKLLIYLASNLQSGVPARFSGSGSGTDFTLNIHPVEEEDAATYYCQHSRELPTFGGGTKLEIK
notes: Whole murine antibody; also called mCOL-1; muCOL-1
B3: chimeric COL-1 (antibody, V domains shown)
VH: B2 VH
VL: B2 VL
B4: HuCOL-1AbrCDR (antibody, V domains shown)
VH: B1 VH with V20M, R38K, M48I, R67K, V79A, M81L
VL: B1 VL with M4L, L82V, V107L
notes: also called FRV1; HuCOL-1 24,25,27L/61H
B5: HuCOL-1 (antibody, V domains shown)
VH: B1 VH with V20M, R38K, R40A, E42G, M48I, Q62P, R67K, V79A, M81L
VL: B1 VL with M4L, K24R, S25A, Q27K, L82V, V107L
notes: Whole humanized antibody; also called humanized COL-1; ATCC PTA-4661
B6: HuCOL-1AbrCDR framework variant 10 (FRV10) (antibody, V domains shown)
VH: B1 VH with E1Q, V12K, F27Y, A68V
VL: B1 VL with M4L, L82V, V107L
notes: also called HuCOL-1FRV10
B7: HuCOL-1AbrCDR framework variant 4 (FRV4) (antibody, V domains shown)
VH: B1 VH
VL: B1 VL with M4L, L82V, V107L
notes: also called HuCOL-1FRV4
B8: HuCOL-1AbrCDR framework variant 7 (FRV7) (antibody, V domains shown)
VH: B1 VH with F27Y, A68V
VL: B1 VL with M4L, L82V, V107L
notes: also called HuCOL-1FRV7; FR7
B9: FRV9 (antibody, name in Kabat numbering, V domains shown)
VH: B1 VH with F27Y, A68V
VL: B1 VL with A64D, T89V
notes: Kabat positions (see notes of FRV2 and FRV8); also called HuCOL-1AbrCDR framework variant 9
B10: FRV11 (antibody, name in Kabat numbering, V domains shown)
VH: B1 VH with E1Q, V12K, F27Y, A68V
VL: B1 VL
notes: Kabat positions (see notes of FRV2 and FRV8); also called HuCOL-1AbrCDR framework variant 11
B11: FRV12 (antibody, name in Kabat numbering, V domains shown)
VH: B1 VH with E1Q, V12K, F27Y, A68V
VL: B1 VL with A64D, T89V
notes: Kabat positions (see notes of FRV2 and FRV8); also called HuCOL-1AbrCDR framework variant 12
B12: FRV3 (antibody, name in Kabat numbering, V domains shown)
VH: B1 VH with V20M, R38K, M48I, R67K, V79A, M81L
VL: B1 VL with A64D, T89V
notes: Kabat positions (see note of FRV2); also called HuCOL-1AbrCDR framework variant 3
B13: FRV6 (antibody, name in Kabat numbering, V domains shown)
VH: B1 VH
VL: B1 VL with A64D, T89V
notes: Kabat positions (see notes of FRV2 and FRV5); also called HuCOL-1AbrCDR framework variant 6
B14: FRV2 (antibody, name in Kabat numbering, V domains shown)
VH: B1 VH with V20M, R38K, M48I, R67K, V79A, M81L
VL: B1 VL
notes: also called HuCOL-1AbrCDR framework variant 2
B15: FRV8 (antibody, name in Kabat numbering, V domains shown)
VH: B1 VH with F27Y, A68V
VL: B1 VL
notes: Kabat positions; also called HuCOL-1AbrCDR framework variant 8

Changes are numbered by the printed parent chain.

One experiment has as its target T1, carcinoembryonic antigen (CEA). Description: competition RIA: unlabeled antibody against 125I-mCOL-1 for binding to CEA, % inhibition against amount competitor Ab (ng), log axis. An excerpt: FIGS. 4A, 4B, and 4C are a series of graphs of a competition radioimmunoassay of HuCOL-1AbrCDR framework variants using ¹²⁵I-mCOL-1. Serial dilutions of unlabeled antibodies were used to compete with the binding of ¹²⁵ImCOL-1. The data was divided into three individual graphs to facilitate viewing. FIG. 4A compares the binding of unlabeled murine COL-1 (muCOL-1), chimeric COL-1 (cCOL-1), HuCOL-1, FRV1 (HuCOL-1AbrCDR), and human IgG (HuIgG). FIG. 4B compares the binding of unlabeled murine HuCOL-1AbrCDR, FRV2, FRV3, FRV4, FRV7, and FRV10. FIG. 4C compares the binding of unlabeled murine HuCOL-1AbrCDR, FRV5, FRV6, FRV8, FRV9, FRV11, and FRV12.
(§1) Competition RIA: The relative antigen-binding affinity of HuCOL-1, HuCOL-1AbrCDR and HuCOL-1AbrCDR antibodies with framework-substitutions was determined using a competition RIA as described previously (De Pascalis et al., J Immunol., 169:3076-3084, 2002). Twenty-five μl of serial dilutions of the antibodies to be tested, as well as mCOL-1, chimeric COL-1, and HuCOL-1 (positive controls) and HuIgG (negative control), prepared in 1% BSA in PBS, were added to microtiter plates containing 10 ng of […] saturated with 5% BSA in PBS. ¹²⁵I-labeled mCOL-1 (100,000 cpm in 25 μl) was then added to each well. After an overnight incubation at 4° C., the plates were washed and the bound radioactivity was counted in a γ-scintillation counter.
(§2) Competition RIA experiments were performed to determine the relative CEA-binding affinity of chimeric COL-1, HuCOL-1, HuCOL-1AbrCDR, and the different HuCOL-1AbrCDR-derived antibodies. Serial dilutions of unlabeled antibodies were used to compete with the binding of ¹²⁵I-mCOL-1 (FIGS. 4A, 4B and 4C) to CEA.
Turning to B1, the “IC50 (read off the curve)” value was around 30 ng.

As for B2, the “IC50 (read off the curve)” value is around 20 ng.

For the molecule B3, the “IC50 (read off the curve)” value was around 30 ng.

Another experiment addresses anti-V region antibodies to COL-1 present in the serum of patient two. The experiment can be described thus: SPR competition; soluble antibody against immobilized HuCOL-1 for serum anti-V region antibodies.
Usually IC50 stands for the concentration that gives 50% inhibition. Low values mean inhibition by little substance, high ones a need for much substance. B4: the IC50 is 2.9 nM.

Consider B5, for which the IC50 stood at 1.9 nM.

For B6, the IC50 amounted to 9.7 nM.

The target of the next experiment is anti-V region antibodies to COL-1 present in the serum of patient one. The experiment is described as above.
As for B4, the IC50 was found to be 6.9 nM.

As for B5, the IC50 was determined as 4.9 nM.

Molecule B6 had a half-maximal inhibitory concentration (IC50) of 28.5 nM.

The next experiment has as its target T1, carcinoembryonic antigen (CEA). The experiment can be described thus: competition RIA against 125I-mCOL-1 on CEA; modified Scatchard. The method, then: as §1, §2
As for B4, the Ka worked out at 2.32e+08 M⁻¹.

As to B5, the Ka is 2.78e+08 M⁻¹.

As for B6, the Ka amounted to 3.04e+08 M⁻¹.

B7 came in with a Ka of 2.51e+08 M⁻¹.

As for B8, the Ka was 3.07e+08 M⁻¹.

The next experiment addresses anti-V region antibodies to COL-1 present in the serum of patient two. Description: SPR competition; reference HuCOL-1; lower end tied to serum EM by Table IV (9.7 against 1.9).
The molecule B6 yielded a fold higher IC50 than HuCOL-1 of 5 to 6 fold.

For the next experiment, the target named is anti-V region antibodies to COL-1 present in the serum of patient one. The experiment can be described thus: SPR competition; reference HuCOL-1; upper end tied to serum MB by Table IV (28.5 against 4.9).
For B6, the fold higher IC50 than HuCOL-1 fell in the range of 5 to 6 fold.

Another experiment deals with T1, carcinoembryonic antigen (CEA). Description: competition RIA against 125I-mCOL-1; reference of the fold not named. As for the experimental part: as §1, §2
In the case of B4, the “Fold Difference” value turned out to be 1.2 fold.

For B9, the “Fold Difference” value was 4.5 fold.

For the molecule B10, the “Fold Difference” value was 4.5 fold.

Take B11: the “Fold Difference” value is 5.6 fold.

With B5, the “Fold Difference” value is 1 fold.

B12: the “Fold Difference” value was determined as 8.6 fold.

B6: the “Fold Difference” value amounted to 0.9 fold.

On to B7, for which the “Fold Difference” value amounted to 1.1 fold.

Regarding B13, the “Fold Difference” value stood at 2.8 fold.

In the case of B8, the “Fold Difference” value was 0.9 fold.

On to B14, for which the “Fold Difference” value was found to be 9.5 fold.

In the case of B15, the “Fold Difference” value was 3.6 fold.

As to B1, the “Fold Difference” value stood at 2.7 fold.

For the molecule B2, the “Fold Difference” value stood at 1 fold.

Consider B3, for which the “Fold Difference” value worked out at 1.4 fold.

The next experiment shares this target. Description: competition RIA, unlabeled antibody against 125I-mCOL-1 on CEA; modified Scatchard. As for the experimental part: as §1, §2
B4: the Ka turned out to be 2.3e+08 M⁻¹.

In turn, B9 yielded a Ka of 6.1e+07 M⁻¹.

Turning to B10, the Ka was 6.1e+07 M⁻¹.

B11 registered a Ka of 4.9e+07 M⁻¹.

With B5, the Ka stood at 2.78e+08 M⁻¹.

Take B12: the Ka amounted to 3.2e+07 M⁻¹.

B6 returned a Ka of 3.04e+08 M⁻¹.

With B7, the Ka was found to be 2.51e+08 M⁻¹.

B13: the Ka came out at 1e+08 M⁻¹.

In turn, B8 came in with a Ka of 3.07e+08 M⁻¹.

B14 gave a Ka of 2.9e+07 M⁻¹.

As to B15, the Ka amounted to 7.7e+07 M⁻¹.

Regarding B1, the Ka stood at 1.01e+08 M⁻¹.

The molecule B2 yielded a Ka of 2.74e+08 M⁻¹.

Consider B3, for which the Ka was 1.99e+08 M⁻¹.

The target of another experiment is anti-V region antibodies to COL-1 present in the serum of patient two. Description: SPR competition, serum of patient two; reference HuCOL-1.
The molecule B4 returned a fold higher IC50 than HuCOL-1 of 1.5 fold.

The next experiment addresses anti-V region antibodies to COL-1 present in the serum of patient one. The experiment can be described thus: SPR competition, serum of patient one; reference HuCOL-1.
On to B4, for which the fold higher IC50 than HuCOL-1 came out at 1.5 fold.
